Holding throughout (conditions): both partners purified
One assay addresses T1, Rb^P A490V (human, UniProt P06400 380-788, A490V).
T1 construct: also called variant 17
T1 sequence (looked up): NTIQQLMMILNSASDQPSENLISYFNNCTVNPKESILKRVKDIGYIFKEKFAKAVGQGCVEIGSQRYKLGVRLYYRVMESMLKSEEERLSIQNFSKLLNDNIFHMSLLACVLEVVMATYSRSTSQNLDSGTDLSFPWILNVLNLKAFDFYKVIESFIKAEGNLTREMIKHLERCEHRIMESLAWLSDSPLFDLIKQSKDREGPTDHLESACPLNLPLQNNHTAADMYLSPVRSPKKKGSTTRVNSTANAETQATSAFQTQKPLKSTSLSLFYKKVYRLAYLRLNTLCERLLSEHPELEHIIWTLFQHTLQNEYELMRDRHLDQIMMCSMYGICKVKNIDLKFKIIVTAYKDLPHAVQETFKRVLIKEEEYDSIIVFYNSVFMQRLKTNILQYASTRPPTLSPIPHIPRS
In words: fluorescence polarisation; 37 °C, after the 25 °C reading ramped over 7 min to 37 °C and 2 min incubation; unlabeled Rb^P against 1.5 nM TMR-E2F1^TD or 7.5 nM TMR-E7^LxCxE; 25 mM Tris pH 8.0, 200 mM NaCl, 1 mM DTT, 0.1% Tween-20; apparent Kd. On the technique in general: Fluorescence polarisation rises when a labelled molecule tumbles more slowly, as on binding a larger partner.

The next assay has as its target T2, Rb^P R621P (human, UniProt P06400 380-788, R621P).
T2 construct: also called variant 43
T2 sequence (looked up): T1 sequence (looked up) with V111A, R242P
The description is as above.

The target of another assay is T3, Rb^P E693A (human, UniProt P06400 380-788, E693A).
T3 construct: also called variant 60
T3 sequence (looked up): T1 sequence (looked up) with V111A, E314A
The description is as above.

In the next assay the target is T4, Rb^P T738I (human, UniProt P06400 380-788, T738I).
T4 construct: also called variant 67
T4 sequence (looked up): T1 sequence (looked up) with V111A, T359I
The assay is described as above.

In a further assay the target is T5, Rb^P I703F (human, UniProt P06400 380-788, I703F).
T5 construct: also called variant 64
T5 sequence (looked up): T1 sequence (looked up) with V111A, I324F
In words: fluorescence polarisation; 25 °C after warming to 37 °C (7 min ramp, 2 min at 37 °C), 1 min on ice and 3 min at 25 °C; unlabeled Rb^P against 1.5 nM TMR-E2F1^TD or 7.5 nM TMR-E7^LxCxE; 25 mM Tris pH 8.0, 200 mM NaCl, 1 mM DTT, 0.1% Tween-20; apparent Kd.

Numbering of substitutions follows the chain as printed. Numbers in names are those of the source. No end group written: not given here. TMR = tetramethyl rhodamine dye

B1: TMR-E2F1^TD, peptide of the E2F1 transactivation domain (peptide)
peptide: {TMR}-GEGIRDLFDCDFGDLTPLD
notes: also called E2F^TD; source: synthetic peptide, bought: GenScript
Regarding B1, the Kd in the assay with Rb^P A490V worked out at 87 nM; in the assay with Rb^P R621P, 83 nM; with Rb^P E693A it was 59 nM; with Rb^P T738I, 179 nM; in the assay with Rb^P I703F it was 94 nM.

B2: TMR-E7^LxCxE, LxCxE peptide of the E7 oncoprotein from HPV (peptide)
peptide: DLYCYEQLN
modifications: also: TMR label, position not given here
notes: source: synthetic peptide, bought: GenScript
As to B2, the Kd in the assay with Rb^P A490V came out at 33 nM; in the assay with Rb^P R621P it was 32 nM; with Rb^P E693A, 24 nM; with Rb^P T738I it was 151 nM; in the assay with Rb^P I703F, 53 nM.

Source of the values: PMC11931385, “Structural and functional analysis of cancer-associated missense variants in the retinoblastoma protein pocket domain” (The Journal of Biological Chemistry, 2025).
